Reference: patent US20210386829A1, “COMPOSITIONS AND METHODS FOR MODULATING CGRP SIGNALING TO REGULATE INNATE LYMPHOID CELL INFLAMMATORY RESPONSES” (The Broad Institute, Inc., priority 2018, published 2021)

Tested on: lung-resident ILCs
Test: SMART-Seq2 plate-based scRNA-seq of lung-resident ILCs from PBS-, IL-25- or IL-33-treated mice, differential gene expression by logistic regression (Tables 3, 4)
Format: in vivo, mouse
Text: Mice and in vivo ILC activation. C57B1/6J mice were purchased from the Jackson Laboratory. Nmur1-LacZ reporter mice with a LacZ cassette knocked into the Nmur1 locus were rederived from Nmur1^tm1.1(KOMP)Vlcg sperm obtained from the trans-NIH Knock-Out Mouse Project (KOMP) Repository. NMU-deficient mice (NMU-KO) were rederived from B6.129S2-Nmu<tm1Mko> embryos from the RIKEN BioResource Center. For experiments with Nmur1-LacZ (Nmur1-KO) and NMU-KO mice, littermates that were either homozygous or heterozygous for the wild type allele were used as controls. Mice were housed under specific-pathogen-free conditions. For experiments, mice were matched for sex and age, and most mice were 6-10 weeks old. Where indicated, mice were anesthetized with Isoflurane and treated intranasally with the indicated stimuli (500 ng IL-25, 500 ng IL-33, or 20 μg Neuromedin U) daily for three consecutive days. The total administered volume was 20 μl for all conditions. Mice were randomly assigned to treatment groups after matching for sex and age. […] Mice were treated intranasally with 10 μg HDM on day 0, 7, 8, and 9, prior to sacrifice on day 10. All experiments were conducted in accordance with animal protocols approved by the Harvard Medical Area Standing Committee on Animals or BWH IACUC.
Fluorescence-activated cell sorting of innate lymphoid cells. After dissociation, single cell suspensions were incubated with CD90.2 MicroBeads (Miltenyi Biotec) on ice and enriched for CD90.2^+ cells by magnetic separation using LS columns according to the manufacturer's protocol. CD90.2^+ lung cells were then stained on ice with antibodies for sorting. ILCs were defined as 7AAD^− CD45^+ CD90.2^+ CD127^+ Lineage (CD11b, CD11c, CD19, NK1.1, […], CD4, CD8a, TCRβ, TCRγδ)^− cells and sorted on a BD FACS Aria (BD Biosciences).
For full-length scRNA-Seq, single ILCs were sorted into 96-well plates containing 5 ul TCL Buffer (QIAGEN) with 1% 2-Mercaptoethanol, centrifuged and frozen at −80° C. SMART-Seq2 protocol was carried out as previously described^23 with minor modifications in the reverse transcription step. cDNA was amplified with 22 cycles and fragmented with one-eighth of the standard Illumina NexteraXT reaction volume. Single-cell libraries were pooled and paired-end sequenced (38 bp×2) with a 75 cycle Nextseq 500 high output V2 kit.
Analysis of SMART-Seq2 plate-based scRNA-Seq data. Reads were aligned to mm10 using Kallisto (Bray, N. L., Pimentel, H., Meisted, P. & Pachter, L. Near-optimal probabilistic RNA-seq quantification. Nat Biotechnol 134, 525-527, doi:10.1038/nbt.3519 (2016)) quant, version 0.42.3. The R package tximport (Soneson, C., Love, M. I. & Robinson, M. D. Differential analyses for RNA-seq: transcript-level estimates improve gene-level inferences [version 2; referees: 2 approved]. F1000Research 4, doi:10.12688/f1000research.7563.2 (2016)), version 1.2.0, was used to convert the output to gene counts and traditional TPM values. Because of the variability in read counts per cell across plates, even from the same condition, as well as in the number of genes per cell across conditions, QC was performed for each of eight plates individually in order to remove cells that were outliers with respect to either measure. Out of 752 cells, 606 cells met QC criteria (234 from control, 152 from IL-25 treated mice, and 220 from IL-33 treated mice), and the number of genes per cell in this set ranged from 1,625 to 6,375. Genes that were not expressed with log(TPM)>2.5 in at least two cells were removed from further analysis. Subsequent analysis proceeded analogously to the droplet-based RNA-seq analysis, with parameter settings that reflected both the wider dynamic range of expression and much smaller cell numbers. The minimum ILC signature score required in ILC type assignment was 0.3. Variable genes were identified by running MeanVarPlot with x.low.cutoff=0.1, y.cutoff=1.5, and x.high.cutoff=10, resulting in a set of 519 genes. […]

B1: IL25 (protein, UniProt Q8VHH8 17-169, looked up)
Interleukin-25: VSLRIQEGCSHLPSCCPSKEQEPPEEWLKWSSASVSPPEPLSHTHHAESCRASKDGPLNSRAISPWSYELDRDLNRVPQDLYHARCLCPHCVSLQTGSHMDPLGNSVPLYHNQTVFYRRPCHGEEGTHRRYCLERRLYRVSLACVCVRPRVMA
Med16 expression coeff: −0.61 | Mfsd1 expression coeff: 1.25 | Mgat1 expression coeff: 1.24 | Mgat5 expression coeff: 1.02 | Mier3 expression coeff: −0.901 | Mkl2 expression coeff: −1.12 | Mlec expression coeff: 0.715 | Morc3 expression coeff: 0.662 | Mov10 expression coeff: 1.08 | Mplkip expression coeff: −0.607 | Mrp63 expression coeff: 1.09 | Mrpl40 expression coeff: −0.837 | Mrpl52 expression coeff: 0.158 | Mrpl53 expression coeff: −1.87 | Mrps18a expression coeff: −1.24 | Ms4a4b expression coeff: 3.49 | Ms4a6b expression coeff: 3.22 | Mtfmt expression coeff: −2.15 | Mxd1 expression coeff: 0.448 | Mybbp1a expression coeff: −0.514 | Myg1 expression coeff: −1.33 | Myo1f expression coeff: 0.897 | Myo1g expression coeff: 0.257 | Naa60 expression coeff: 0.241 | Nbn expression coeff: −0.499 | Ndufaf3 expression coeff: 1.45 | Neu3 expression coeff: −2.64 | Nfil3 expression coeff: 2.04 | Nipal1 expression coeff: 1.61 | Nlrc5 expression coeff: 0.93 | Nol6 expression coeff: −1.65 | Nol9 expression coeff: −0.775 | Nop56 expression coeff: −0.619 | Npc2 expression coeff: 0.143 | Npnt expression coeff: 0.056 | Nrip1 expression coeff: 0.668 | Nsmaf expression coeff: 1.41 | Oas1a expression coeff: 0.0294 | Ogfr expression coeff: 0.578 | Omd expression coeff: −1.12 | Parp3 expression coeff: 0.335 | Parp10 expression coeff: 0.371 | Parp14 expression coeff: 0.934 | Paxip1 expression coeff: −1.15 | Pdcd1 expression coeff: 1.04 | Pde4b expression coeff: 0.735 | Per1 expression coeff: −0.785 | Pfas expression coeff: −0.546 | Phc3 expression coeff: 0.476 | Phf11a expression coeff: 1.52 | Phf11b expression coeff: 1.38 | Picalm expression coeff: 1.79 | Pigv expression coeff: −2.73 | Pin4 expression coeff: 0.928 | Plac8 expression coeff: 0.268 | Plekha5 expression coeff: −1.01 | Plxdc2 expression coeff: −0.906 | Pml expression coeff: 1.04 | Ppif expression coeff: −1.14 | Ppp1r15a expression coeff: 0.186 | Pydc4 expression coeff: 1.52 | Pyhin1 expression coeff: 0.623 | Rab7l1 expression coeff: 1.18 | Rab8b expression coeff: 1.5 | Rab33b expression coeff: −1.3 | Rdh1 expression coeff: −2.49 | Rdh13 expression coeff: −1.37 | Rilpl2 expression coeff: 1.4 | Rnf125 expression coeff: 1.65 | Rtp4 expression coeff: 0.866 | Samd9l expression coeff: 0.773 | Sbno2 expression coeff: 1.09 | Sdc4 expression coeff: 0.206 | Sdccag3 expression coeff: 0.312 | Sema4a expression coeff: −0.348 | Sema4d expression coeff: 0.548 | Sesn3 expression coeff: 0.328 | Shank2 expression coeff: −3.19 | Sipa1 expression coeff: 1.56 | Slc25a24 expression coeff: 0.607 | Slc44a2 expression coeff: 0.294 | Slfn2 expression coeff: 0.267 | Smn1 expression coeff: −1.53 | Sntb1 expression coeff: 1.29 | Soat1 expression coeff: 0.339 | Socs1 expression coeff: −1.36 | Socs2 expression coeff: −0.923 | Socs3 expression coeff: 1.02 | Sp100 expression coeff: 0.451 | Sptssa expression coeff: −0.974 | Ssr3 expression coeff: 0.609 | St3gal6 expression coeff: −0.764 | Stab1 expression coeff: 1.24 | Stat1 expression coeff: 1.88 | Syt11 expression coeff: 0.291 | Taf1d expression coeff: 1.28 | Tango6 expression coeff: −1.32 | Tap1 expression coeff: 0.561 | Tap2 expression coeff: 0.406 | Tet3 expression coeff: 1.62 | Tmem33 expression coeff: 1.18 | Tmem176a expression coeff: −0.146 | Tmem176b expression coeff: −0.422 | Tmem209 expression coeff: −0.847 | Tmem229b expression coeff: 0.199 | Tnfrsf18 expression coeff: −1.25 | Tnfsf10 expression coeff: −1.18 | Tpm4 expression coeff: 0.311 | Tradd expression coeff: 0.964 | Trafd1 expression coeff: 0.993 | Trim12c expression coeff: 0.974 | Trim30a expression coeff: 1.17 | Trim34a expression coeff: 0.632 | Trim30d expression coeff: 0.527 | Trip13 expression coeff: −1.91 | Trp53inp1 expression coeff: 1.28 | Ttc19 expression coeff: 0.891 | Ttc39b expression coeff: 0.546 | Ube2h expression coeff: 0.767 | Usp18 expression coeff: 1.1 | Usp36 expression coeff: −0.645 | Vdr expression coeff: −0.748 | Vmp1 expression coeff: 1.49 | Xrcc3 expression coeff: −1.4 | Zbp1 expression coeff: 0.971 | Zc3h12a expression coeff: −1.14 | Zcchc10 expression coeff: −1.82 | Zfand6 expression coeff: 0.659 | Zfc3h1 expression coeff: 0.466 | Zfp110 expression coeff: −0.396 | Zfp825 expression coeff: −1.4
